In patent publication US11738096B2, “Method of detecting diseased or damaged tissue with a pH-triggered polypeptide fluorophore composition” (University of Rhode Island Board of Trustees, priority 2016, dated 2023):
Where a SMILES comes first, the peptide text is derived from it. The star is where a group is joined. X1 = CC1(C)C(/C=C/C=C/C=C/C=C2/N(CCCCCC(=O)NCCN3C(=O)CC(*)C3=O)c3ccc4ccccc4c3C2(C)C)=[N+](CCCCS(=O)(=O)[O-])c2ccc3ccccc3c21

What was measured:
[1] = system: 4T1 murine mammary carcinoma; assay: Tumor targeting in mice bearing 4T1 tumors; assay type: in vivo, mouse; settings: 20 μM, IV, 16 h
Procedure: Adult female nude mice and female BALB/cAnNHsd mice (Envigo), 20-25 g in body mass were used in the study. Mouse mammary cancer 4T1 cells were subcutaneously implanted in the right flank (8×10^5 cells/0.1 mL/flank) of adult female BALB/cAnNHsd mice. Rat bladder cancer AY27 cells were subcutaneously implanted in the right flank (8×10^5 cells/0.1 mL/flank) of adult female nude mice. When tumors reached approximately 5-6 mm in diameter, single tail vein injection or single intraperitoneal injection of fluorophore-pHLIP® solutions in PBS were performed. Fluorescent constructs were used in amounts of 100 μL of 40 μM, or 100 μL of 20 μM, or 100 μL of 10 μM, or 100 μL of 5 μM. Imaging of mouse was performed at 16 hours after constructs administration. Skin was removed from the tumor site just before imaging while animal was under gas anesthesia, and mice were euthanized immediately after imaging. Tumor, kidney and liver were harvested, imaged and used for histopathological analysis. Imaging was performed using Stryker clinical imaging instrument. Autofluorescence was established by imaging mouse with no injection of fluorescent constructs (the level of autofluorescence signal was insignificant compared to the signal after the constructs administration).

[2] = system: urothelial carcinoma in human bladder specimens; assay: Ex vivo NIR fluorescence imaging of radical cystectomy bladder specimens, 60 min instillation
Procedure: 22 urothelial carcinoma patients that were scheduled for radical cystectomy were selected over a twelve month period. After radical cystectomy, bladder specimens were immediately removed and irrigated 3 times for 5 min via catheter with non-buffered saline and instilled and incubated with 80 ml of 8 μM or 32.8 μg/ml (unless otherwise is stated, see notes to Table 8) of ICG-Var3 construct or ICG-Cys in PBS pH 7.4 containing 10 mM D-glucose for 60 minutes. Then, the unbound constructs were removed by rinsing with 80 ml of saline solution 3-5 times, the bladder was irrigated thoroughly with buffered saline and opened using a Y incision on the anterior wall. Using a da Vinci Si near-infrared fluorescence imaging system (Firefly^R), ex vivo fluorescent and white light imaging of the entire bladder and its parts was performed. The fluorescent spots were marked and standard pathological analysis was carried out to explore the correlation between appearance of fluorescent signal and cancer lesions.
The specimen was sectioned and submitted after 24 hour fixation in 10% phosphate-buffered formalin according to the standard institutional grossing manual, with emphasis on the marked areas of the bladder. The sections were processed for routine histology into paraffin-embedded blocks. […]
Statistical parameters were calculated according to the following equations: […]

[3] = NIR fluorescence imaging of blood vessels and blood flow (ear, leg, blood samples) in mice; assay type: in vivo, mouse; settings: blood collected 5-120 min after IV injection
Procedure: Adult female nude mice (Envigo), 20 g in body mass were used in the study. Fluorescent constructs were given as a single tail vein injection in amounts of 100 μL of 40 μM in PBS. Imaging of mouse ear and leg was performed at 5, 30, 60, 90 and 120 min after construct administration. At 5, 30, 60, 90 and 120 min after construct administration 5 μL of blood was withdrawn from tail (and mixed with 5 μL of anticoagulating solution to preserve blood) while animal was under anesthesia. Mice were euthanized immediately after last imaging point (120 min). Blood collected from all animals was deposited on the glass slide, dried and imaged. Imaging was performed using Novadaq clinical imaging instrument. Autofluorescence was established by imaging mouse with no injection of fluorescent constructs (the level of autofluorescence signal was insignificant compared to the signal after the constructs administration).

Question: Which organ of clearance [1] does the source give for `CC(C)C[C@H](NC(=O)[C@H](Cc1ccc(O)cc1)NC(=O)[C@H](C)NC(=O)[C@H](CCCNC(=N)N)NC(=O)[C@H](Cc1c[nH]c2ccccc12)NC(=O)[C@@H]1CCCN1C(=O)[C@H](CC(N)=O)NC(=O)[C@H](CCC(N)=O)NC(=O)[C@H](CC(=O)O)NC(=O)[C@H](CC(=O)O)NC(=O)[C@H](CSC1CC(=O)N(CCNC(=O)CCCCCN2/C(=C/C=C/C=C/C=C/C3=[N+](CCCCS(=O)(=O)[O-])c4ccc5ccccc5c4C3(C)C)C(C)(C)c3c2ccc2ccccc32)C1=O)NC(=O)[C@H](C)N)C(=O)N[C@@H](CC(=O)O)C(=O)N[C@@H](CC(C)C)C(=O)N[C@@H](CC(C)C)C(=O)N[C@@H](Cc1ccccc1)C(=O)N1CCC[C@H]1C(=O)N[C@H](C(=O)N[C@@H](CC(=O)O)C(=O)N[C@H](C(=O)N[C@@H](CC(C)C)C(=O)N[C@@H](CC(C)C)C(=O)N[C@@H](CC(C)C)C(=O)N[C@@H](CC(=O)O)C(=O)N[C@@H](CC(C)C)C(=O)N[C@@H](CC(C)C)C(=O)N[C@@H](Cc1c[nH]c2ccccc12)C(=O)N[C@@H](C)C(=O)O)[C@@H](C)O)[C@@H](C)O` (stereo partly drawn) [ICG-Var3] (H-AC(X1)DDQNPWRAYLDLLFPTDTLLLDLLWA-OH) here?
Answer: cleared by the liver

Question: And the “adverse morphological findings in specimens after incubation” value [2]?
Answer: did not show any adverse morphological findings

Question: What about the “fluorescent signal in blood samples” value [3] of the same compound?
Answer: persistence of strong fluorescent signal within 2 hours
